Laboratory results reported in US20090031456A1 (MICHIGAN STATE UNIVERSITY, published 2009).

Target: AtMIN7-HA (Arabidopsis thaliana, UniProt F4IXW2 1-1739)
Experiment: transient co-expression in N. benthamiana leaves, pull-down and immunoblot

Chain of AtMIN7-HA (F4IXW2 other isoform, or with tags, fused parts or gaps limits assumed): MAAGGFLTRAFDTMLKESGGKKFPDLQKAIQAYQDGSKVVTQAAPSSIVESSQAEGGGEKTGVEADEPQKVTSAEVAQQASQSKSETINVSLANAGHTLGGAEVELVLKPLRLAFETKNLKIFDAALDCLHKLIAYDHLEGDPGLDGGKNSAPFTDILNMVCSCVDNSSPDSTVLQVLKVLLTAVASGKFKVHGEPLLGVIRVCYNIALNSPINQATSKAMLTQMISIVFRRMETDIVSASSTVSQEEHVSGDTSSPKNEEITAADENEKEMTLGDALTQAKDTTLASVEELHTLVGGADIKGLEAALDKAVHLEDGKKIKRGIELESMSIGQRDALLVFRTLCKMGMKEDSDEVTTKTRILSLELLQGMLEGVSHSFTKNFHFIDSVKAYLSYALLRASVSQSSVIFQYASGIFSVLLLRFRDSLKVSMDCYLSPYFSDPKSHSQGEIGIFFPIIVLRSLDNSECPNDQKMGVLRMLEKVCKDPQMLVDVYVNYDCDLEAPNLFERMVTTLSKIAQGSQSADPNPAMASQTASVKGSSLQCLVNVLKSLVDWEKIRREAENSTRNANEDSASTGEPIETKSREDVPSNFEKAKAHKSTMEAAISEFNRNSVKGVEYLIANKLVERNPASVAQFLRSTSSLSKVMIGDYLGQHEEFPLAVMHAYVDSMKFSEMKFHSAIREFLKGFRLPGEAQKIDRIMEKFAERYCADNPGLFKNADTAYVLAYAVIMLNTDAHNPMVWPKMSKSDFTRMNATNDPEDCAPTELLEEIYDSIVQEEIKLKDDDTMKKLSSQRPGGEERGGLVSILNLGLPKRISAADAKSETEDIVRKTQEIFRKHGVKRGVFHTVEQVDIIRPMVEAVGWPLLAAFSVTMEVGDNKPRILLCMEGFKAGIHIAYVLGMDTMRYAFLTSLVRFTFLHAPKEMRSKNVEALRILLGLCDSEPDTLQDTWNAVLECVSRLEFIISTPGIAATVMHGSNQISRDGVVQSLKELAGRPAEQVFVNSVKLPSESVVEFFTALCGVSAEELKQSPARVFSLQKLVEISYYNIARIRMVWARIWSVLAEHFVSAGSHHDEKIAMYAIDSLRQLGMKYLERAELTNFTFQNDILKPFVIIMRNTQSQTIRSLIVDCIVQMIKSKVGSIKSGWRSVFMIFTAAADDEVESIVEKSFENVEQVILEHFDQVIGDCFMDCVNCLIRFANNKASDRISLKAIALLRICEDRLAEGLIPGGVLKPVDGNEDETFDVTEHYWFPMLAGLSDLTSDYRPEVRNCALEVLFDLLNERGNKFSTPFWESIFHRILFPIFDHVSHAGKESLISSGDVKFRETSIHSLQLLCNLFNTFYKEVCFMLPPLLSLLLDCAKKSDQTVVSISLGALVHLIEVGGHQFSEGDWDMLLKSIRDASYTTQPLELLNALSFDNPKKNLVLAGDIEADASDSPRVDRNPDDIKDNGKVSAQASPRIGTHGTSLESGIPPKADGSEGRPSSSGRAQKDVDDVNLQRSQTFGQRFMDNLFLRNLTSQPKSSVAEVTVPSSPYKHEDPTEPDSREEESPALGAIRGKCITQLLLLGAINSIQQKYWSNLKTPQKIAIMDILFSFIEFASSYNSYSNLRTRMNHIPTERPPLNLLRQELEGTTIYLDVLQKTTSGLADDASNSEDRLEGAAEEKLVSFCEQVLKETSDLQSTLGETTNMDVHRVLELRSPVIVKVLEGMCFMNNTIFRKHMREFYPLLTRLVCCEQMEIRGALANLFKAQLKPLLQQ

B1: 6×His-HopM1 1-300 (other)
chain: MISSRIGGAGGVELSRVNQQHDTVPAQTAHPNAVTAGMNPPLTPDQSGSHATESSSAGAARLNVAARHTQLLQAFKAEHGTAPVSGAPMISSRAALLIGSLLQAEPLPFEVMAEKLSPERYQLKQFQGSDLQQRLEKFAQPGQIPDKAEVGQLIKGFAQSVADQLEHFQLMHDASPATVGQHAKADKATLAVSQTALGEYAGRASKAIGEGLSNSIASLDEHISALDLTLQDAEQGNKESLHADRQALVDAKTTLVGLHADFVKSPEAKRLASVAAHTQLDNVVSDLVTARNTVGGWKGA
notes: also called HopM1-300
B1: binds.
